Results reported in US20110166062A1 (INDIANA UNIVERSITY RESEARCH AND TECHNOLOGY, published 2011).
Bridges are numbered along the chain shown (N, C = ends). Where no end group is shown, it is not given here. [ ]: non-standard residue; d: D form. Aib = CC(C)(N)C(=O)O

T1: GIP receptor (UniProt P48546 22-466)
T1 sequence (looked up): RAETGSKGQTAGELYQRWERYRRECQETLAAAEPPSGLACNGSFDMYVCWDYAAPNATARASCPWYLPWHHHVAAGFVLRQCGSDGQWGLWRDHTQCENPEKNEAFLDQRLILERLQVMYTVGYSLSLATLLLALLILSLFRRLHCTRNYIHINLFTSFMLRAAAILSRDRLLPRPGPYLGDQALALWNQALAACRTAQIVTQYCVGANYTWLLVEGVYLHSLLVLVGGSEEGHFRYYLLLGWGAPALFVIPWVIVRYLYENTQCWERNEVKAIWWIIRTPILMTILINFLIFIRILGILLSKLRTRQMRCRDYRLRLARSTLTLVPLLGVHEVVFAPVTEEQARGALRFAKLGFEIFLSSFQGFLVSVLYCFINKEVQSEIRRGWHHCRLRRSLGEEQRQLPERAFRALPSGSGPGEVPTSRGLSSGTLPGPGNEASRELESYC


Key:
Assay in all cases: cell-based or functional assay
[1] = biological target: glucagon receptor (UniProt P47871 26-477, limits assumed)
Sequence of glucagon receptor (P47871 26-477 limits assumed): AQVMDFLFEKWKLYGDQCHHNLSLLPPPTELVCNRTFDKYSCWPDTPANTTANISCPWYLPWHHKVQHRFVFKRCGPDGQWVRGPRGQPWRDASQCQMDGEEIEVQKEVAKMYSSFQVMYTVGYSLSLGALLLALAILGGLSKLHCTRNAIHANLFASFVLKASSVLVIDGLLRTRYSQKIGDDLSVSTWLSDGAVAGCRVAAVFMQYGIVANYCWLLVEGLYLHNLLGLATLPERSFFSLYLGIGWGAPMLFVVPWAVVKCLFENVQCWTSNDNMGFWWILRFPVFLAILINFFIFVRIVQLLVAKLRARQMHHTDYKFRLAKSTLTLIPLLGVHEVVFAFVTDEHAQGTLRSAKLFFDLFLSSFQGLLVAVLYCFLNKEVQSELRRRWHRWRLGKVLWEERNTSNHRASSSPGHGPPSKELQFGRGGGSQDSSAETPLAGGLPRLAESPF

[2] = biological target: GLP-1 receptor (UniProt P43220 24-463, limits assumed)
[3] = biological target: T1, GIP receptor

Binder	EC50 [1]	relative activity [1]	EC50 [2]	relative activity [2]	EC50 [3]	relative activity [3]
YSQGTFTSDYSIYLDEQAAKEFVEWLLKGGPSSGAPPPS-NH2 (lactam 24-28; N-terminus assumed; SMILES CC[C@H](C)[C@H](NC(=O)[C@H](CO)NC(=O)[C@H](Cc1ccc(O)cc1)NC(=O)[C@H](CC(=O)O)NC(=O)[C@H](CO)NC(=O)[C@@H](NC(=O)[C@H](Cc1ccccc1)NC(=O)[C@@H](NC(=O)CNC(=O)[C@H](CCC(N)=O)NC(=O)[C@H](CO)NC(=O)[C@@H](N)Cc1ccc(O)cc1)[C@@H](C)O)[C@@H](C)O)C(=O)N[C@@H](Cc1ccc(O)cc1)C(=O)N[C@@H](CC(C)C)C(=O)N[C@@H](CC(=O)O)C(=O)N[C@@H](CCC(=O)O)C(=O)N[C@@H](CCC(N)=O)C(=O)N[C@@H](C)C(=O)N[C@@H](C)C(=O)N[C@@H](CCCCN)C(=O)N[C@@H](CCC(=O)O)C(=O)N[C@@H](Cc1ccccc1)C(=O)N[C@H](C(=O)N[C@H]1CCC(=O)NCCCC[C@@H](C(=O)NCC(=O)NCC(=O)N2CCC[C@H]2C(=O)N[C@@H](CO)C(=O)N[C@@H](CO)C(=O)NCC(=O)N[C@@H](C)C(=O)N2CCC[C@H]2C(=O)N2CCC[C@H]2C(=O)N2CCC[C@H]2C(=O)N[C@@H](CO)C(N)=O)NC(=O)[C@H](CC(C)C)NC(=O)[C@H](CC(C)C)NC(=O)[C@H](Cc2c[nH]c3ccccc23)NC1=O)C(C)C) [mt-157]	2.62 nM	6.92%	0.081 nM	37%	1.01 nM	4%
YSQGTFTSDYSIYLDEQAAKEFVEWLLAGGPSSGAPPPS-NH2 (lactam 20-24; N-terminus assumed; SMILES CC[C@H](C)[C@H](NC(=O)[C@H](CO)NC(=O)[C@H](Cc1ccc(O)cc1)NC(=O)[C@H](CC(=O)O)NC(=O)[C@H](CO)NC(=O)[C@@H](NC(=O)[C@H](Cc1ccccc1)NC(=O)[C@@H](NC(=O)CNC(=O)[C@H](CCC(N)=O)NC(=O)[C@H](CO)NC(=O)[C@@H](N)Cc1ccc(O)cc1)[C@@H](C)O)[C@@H](C)O)C(=O)N[C@@H](Cc1ccc(O)cc1)C(=O)N[C@@H](CC(C)C)C(=O)N[C@@H](CC(=O)O)C(=O)N[C@@H](CCC(=O)O)C(=O)N[C@@H](CCC(N)=O)C(=O)N[C@@H](C)C(=O)N[C@@H](C)C(=O)N[C@H]1CCCCNC(=O)CC[C@@H](C(=O)N[C@@H](Cc2c[nH]c3ccccc23)C(=O)N[C@@H](CC(C)C)C(=O)N[C@@H](CC(C)C)C(=O)N[C@@H](C)C(=O)NCC(=O)NCC(=O)N2CCC[C@H]2C(=O)N[C@@H](CO)C(=O)N[C@@H](CO)C(=O)NCC(=O)N[C@@H](C)C(=O)N2CCC[C@H]2C(=O)N2CCC[C@H]2C(=O)N2CCC[C@H]2C(=O)N[C@@H](CO)C(N)=O)NC(=O)[C@H](C(C)C)NC(=O)[C@H](Cc2ccccc2)NC(=O)[C@H](CCC(=O)O)NC1=O) [mt-156]	2.96 nM	6.1%	0.246 nM	12.2%	0.919 nM	4.41%
YAEGTFTSDYSIYLDEQAAKEFVNWLLAGGPSSGAPPPS-NH2 (lactam 16-20; N-terminus assumed; SMILES CC[C@H](C)[C@H](NC(=O)[C@H](CO)NC(=O)[C@H](Cc1ccc(O)cc1)NC(=O)[C@H](CC(=O)O)NC(=O)[C@H](CO)NC(=O)[C@@H](NC(=O)[C@H](Cc1ccccc1)NC(=O)[C@@H](NC(=O)CNC(=O)[C@H](CCC(=O)O)NC(=O)[C@H](C)NC(=O)[C@@H](N)Cc1ccc(O)cc1)[C@@H](C)O)[C@@H](C)O)C(=O)N[C@@H](Cc1ccc(O)cc1)C(=O)N[C@@H](CC(C)C)C(=O)N[C@@H](CC(=O)O)C(=O)N[C@H]1CCC(=O)NCCCC[C@@H](C(=O)N[C@@H](CCC(=O)O)C(=O)N[C@@H](Cc2ccccc2)C(=O)N[C@H](C(=O)N[C@@H](CC(N)=O)C(=O)N[C@@H](Cc2c[nH]c3ccccc23)C(=O)N[C@@H](CC(C)C)C(=O)N[C@@H](CC(C)C)C(=O)N[C@@H](C)C(=O)NCC(=O)NCC(=O)N2CCC[C@H]2C(=O)N[C@@H](CO)C(=O)N[C@@H](CO)C(=O)NCC(=O)N[C@@H](C)C(=O)N2CCC[C@H]2C(=O)N2CCC[C@H]2C(=O)N2CCC[C@H]2C(=O)N[C@@H](CO)C(N)=O)C(C)C)NC(=O)[C@H](C)NC(=O)[C@H](C)NC(=O)[C@H](CCC(N)=O)NC1=O) [mt-149]	16.3 nM	0.64%	0.036 nM	97.5%	0.068 nM	91.2%
YSEGTFTSDYSIYLDEQAAKEFIAWLLAGGPSSGAPPPS-NH2 (lactam 16-20; N-terminus assumed; SMILES CC[C@H](C)[C@H](NC(=O)[C@H](Cc1ccccc1)NC(=O)[C@H](CCC(=O)O)NC(=O)[C@@H]1CCCCNC(=O)CC[C@H](NC(=O)[C@H](CC(=O)O)NC(=O)[C@H](CC(C)C)NC(=O)[C@H](Cc2ccc(O)cc2)NC(=O)[C@@H](NC(=O)[C@H](CO)NC(=O)[C@H](Cc2ccc(O)cc2)NC(=O)[C@H](CC(=O)O)NC(=O)[C@H](CO)NC(=O)[C@@H](NC(=O)[C@H](Cc2ccccc2)NC(=O)[C@@H](NC(=O)CNC(=O)[C@H](CCC(=O)O)NC(=O)[C@H](CO)NC(=O)[C@@H](N)Cc2ccc(O)cc2)[C@@H](C)O)[C@@H](C)O)[C@@H](C)CC)C(=O)N[C@@H](CCC(N)=O)C(=O)N[C@@H](C)C(=O)N[C@@H](C)C(=O)N1)C(=O)N[C@@H](C)C(=O)N[C@@H](Cc1c[nH]c2ccccc12)C(=O)N[C@@H](CC(C)C)C(=O)N[C@@H](CC(C)C)C(=O)N[C@@H](C)C(=O)NCC(=O)NCC(=O)N1CCC[C@H]1C(=O)N[C@@H](CO)C(=O)N[C@@H](CO)C(=O)NCC(=O)N[C@@H](C)C(=O)N1CCC[C@H]1C(=O)N1CCC[C@H]1C(=O)N1CCC[C@H]1C(=O)N[C@@H](CO)C(N)=O) [mt-148]	4.91 nM	2.14%	0.098 nM	36.2%	0.095 nM	65.3%
YSQGTFISDYSIYLDEQAAKEFVNWLLAGGPSSGAPPPS-NH2 (lactam 16-20; N-terminus assumed; SMILES CC[C@H](C)[C@H](NC(=O)[C@H](CO)NC(=O)[C@H](Cc1ccc(O)cc1)NC(=O)[C@H](CC(=O)O)NC(=O)[C@H](CO)NC(=O)[C@@H](NC(=O)[C@H](Cc1ccccc1)NC(=O)[C@@H](NC(=O)CNC(=O)[C@H](CCC(N)=O)NC(=O)[C@H](CO)NC(=O)[C@@H](N)Cc1ccc(O)cc1)[C@@H](C)O)[C@@H](C)CC)C(=O)N[C@@H](Cc1ccc(O)cc1)C(=O)N[C@@H](CC(C)C)C(=O)N[C@@H](CC(=O)O)C(=O)N[C@H]1CCC(=O)NCCCC[C@@H](C(=O)N[C@@H](CCC(=O)O)C(=O)N[C@@H](Cc2ccccc2)C(=O)N[C@H](C(=O)N[C@@H](CC(N)=O)C(=O)N[C@@H](Cc2c[nH]c3ccccc23)C(=O)N[C@@H](CC(C)C)C(=O)N[C@@H](CC(C)C)C(=O)N[C@@H](C)C(=O)NCC(=O)NCC(=O)N2CCC[C@H]2C(=O)N[C@@H](CO)C(=O)N[C@@H](CO)C(=O)NCC(=O)N[C@@H](C)C(=O)N2CCC[C@H]2C(=O)N2CCC[C@H]2C(=O)N2CCC[C@H]2C(=O)N[C@@H](CO)C(N)=O)C(C)C)NC(=O)[C@H](C)NC(=O)[C@H](C)NC(=O)[C@H](CCC(N)=O)NC1=O) [mt-150]	0.036 nM	317%	3.47 nM	1.09%	0.232 nM	26.7%
Y[Aib]QGTFTSDYSIYLDEQAAKEFVNWLLAGGPSSGAPPPS-NH2 (lactam 16-20; N-terminus assumed; SMILES CC[C@H](C)[C@H](NC(=O)[C@H](CO)NC(=O)[C@H](Cc1ccc(O)cc1)NC(=O)[C@H](CC(=O)O)NC(=O)[C@H](CO)NC(=O)[C@@H](NC(=O)[C@H](Cc1ccccc1)NC(=O)[C@@H](NC(=O)CNC(=O)[C@H](CCC(N)=O)NC(=O)C(C)(C)NC(=O)[C@@H](N)Cc1ccc(O)cc1)[C@@H](C)O)[C@@H](C)O)C(=O)N[C@@H](Cc1ccc(O)cc1)C(=O)N[C@@H](CC(C)C)C(=O)N[C@@H](CC(=O)O)C(=O)N[C@H]1CCC(=O)NCCCC[C@@H](C(=O)N[C@@H](CCC(=O)O)C(=O)N[C@@H](Cc2ccccc2)C(=O)N[C@H](C(=O)N[C@@H](CC(N)=O)C(=O)N[C@@H](Cc2c[nH]c3ccccc23)C(=O)N[C@@H](CC(C)C)C(=O)N[C@@H](CC(C)C)C(=O)N[C@@H](C)C(=O)NCC(=O)NCC(=O)N2CCC[C@H]2C(=O)N[C@@H](CO)C(=O)N[C@@H](CO)C(=O)NCC(=O)N[C@@H](C)C(=O)N2CCC[C@H]2C(=O)N2CCC[C@H]2C(=O)N2CCC[C@H]2C(=O)N[C@@H](CO)C(N)=O)C(C)C)NC(=O)[C@H](C)NC(=O)[C@H](C)NC(=O)[C@H](CCC(N)=O)NC1=O) [mt-152]	0.293 nM	36.5%	0.016 nM	169%	0.087 nM	41.2%
